From US20050026833A1, “PSP-94: use for treatment of hypercalcemia and bone metastasis” (priority 2001, published 2005) come the findings set out here.

Entries after “also recorded” stand apart in the source; their conditions may differ.

The nature of data set [1]: Plasma calcium by atomic absorption spectrophotometry in tumor bearing animals. The format is in vivo, male Copenhagen rats. On the procedure: (§1) Control animals received PBS alone as vehicle control.
Other Analytical Methods. Plasma calcium levels were determined by atomic absorption spectrophotometry (model 703, Perkin-Elmer, Norwalk, Conn.). For plasma PTHrP, all samples were tested in two dilutions in PTHrP radio-immunoassay (R.I.A.) kit (Nichols Institute Diagnostics, San Juan Capistrano, Calif.) according to manufacturer's instructions.
Comparison was made between plasma collected from normal, non-tumor bearing animals (N), control tumor bearing animals receiving vehicle alone (CTL) and plasma collected from experimental animals receiving different doses of PSP-94 (0.1-10.0 ug/kg/day). Plasma calcium levels were determined by atomic absorption spectrophotometry (model 703, Perkin-Elmer, Norwalk, Conn.). For plasma PTHrP, all samples were tested in two dilutions in PTHrP R.I.A. kit (Nichols Institute Diagnostics, San Juan Capistrano, Calif.) according to manufacturers instructions.
FIGS. 10A and 10B show male Copenhagen rats inoculated s.c. with 10^6 Mat Ly Lu-PTHrP cells. Following 3 days of tumor cell inoculation, animals were treated with vehicle alone (Ctl) or different doses (1.0, or 10.0 ug/kg/day) of PSP-94 for 18 days. Animals were sacrificed on day 21 and plasma PTHrP (FIG. 10A; expressed in picomole equivalents/liter) or plasma calcium (FIG. 10B; expressed in millimolar (mM)) levels were determined. Results for non-tumor bearing animals are also shown (N).
Plasma calcium levels from non-tumor bearing animals are also shown (N).

Data set [2] in a line: Animal weight and side-effect monitoring in tumor-bearing rats. The settings on record: for cytotoxic effects: overall conclusion of the study.
Method: Also, alternatively, cell pellets (5×10^5 cells) were resuspended in 100 ul saline and injected using 1 ml syringes into the right flank of rats as described herein. From the time of tumor cell inoculation, experimental animals were treated with different doses (0.1, 1.0, 10.0, or 100.0 ug/kg/day) of PSP-94 or PCK3145 (SEQ ID NO.:5) via S.C. injections for 15 consecutive days. Control animals received PBS alone as vehicle control. All animals were numbered, kept separately and monitored daily for the development of tumors. […] All control and experimental animals were weighed every alternate day to determine any adverse effect of PSP-94 or PCK3145. Both control and experimental animals were sacrificed at day 16 post tumor cell inoculation and their tumors were removed and weighed.
During the study, both control and experimental animals were monitored for any noticeable side effects and cachexia resulting in weight loss. […] Starting on the time of tumor cell inoculation animals were infused with different doses of PSP-94 for fifteen consecutive days as described herein. All animals were weighed at timed intervals and comparison was made with that of tumor bearing animals receiving vehicle alone as control (CTL).
Male Copenhagen rats were inoculated with 1×10^6 Mat Ly Lu-PTHrP cells via S.C. route of injection into the right flank. Animals were infused daily via S.C. route, below the site of tumor cell inoculation, with different doses (1.0-100.0 ug/kg/day) of PCK3145 starting from the day of tumor cell inoculation and lasting for 15 days. […] Animals were also weighed to determine any side effects of administering PCK3145. […] In order to determine the effect of PCK3145 on tumor weight, control animals and experimental animals receiving PCK3145 were sacrificed at the end of the study (day 16) and their tumors excised and weighed.
The subject of data set [3] is Mat Ly Lu-PTHrP tumors. The data set is described as follows: S.C. Mat Ly Lu-PTHrP tumor growth (volume, weight) in Copenhagen rats. Type of data set: in vivo, male Copenhagen rats. As for the experimental part:
as §1
Starting from the day of tumor cell inoculation animals were infused S.C., below the tumor cell inoculation site, with different doses of PSP-94 (0.1-10.0 ug/kg/day) for up to 15 days.
In FIG. 2B male Copenhagen rats were inoculated s.c with 10^6 Mat Ly Lu-PTHrP cells. After 3 days of tumor cell inoculation, animals were injected with vehicle alone (Ctl) or different doses (0.1, 1, 10 ug/kg) of PSP-94 (nPSP) at the site of tumor cell injection. Tumor volume (expressed in cubic centimeter (cm^3)) was determined at timed intervals.
At the end of the study tumors from control (CTL), vehicle treated animals and PSP-94 treated animals were excised and weighed.

The test system of data set [4] is Mat Ly Lu-PTHrP tumors. Description: TUNEL assay and Hoechst counterstaining of primary tumor sections. Type of data set: in vivo, male Copenhagen rats. The settings on record: vs vehicle; for TUNEL staining of tumor sections: fifteen days. On the procedure: For TUNEL assay, tissue sections were, for example, dewaxed (e.g., in xylene), (may also be rehydrated by heating at 60° C. followed by washing in xylene) and (further) rehydrated through a graded alcohol series (100%-70%). Tissues were incubated with proteinase K for 30 min at 37° C. fixed, blocked and permeabilized. Apoptotic cells were detected by TUNEL assay in situ cell death detection kit (Roche Molecular Biochemicals, Laval, QC) according to the manufacturer's instruction. Positive TUNEL staining was visualised by fluorescence microscopy. In other experiments following TUNEL assay, tissue sections were counterstained with Hoechst 33258 (Sigma-Aldrich, Canada). Hoechst staining was added to tissues at a final concentration of 24 ug/ml in PBS and incubated for 15 minutes at room temperature. Tissue sections were washed and visualized by fluorescence microscopy using a blue screen (Rabbani, S. A., et al., Int. J.Cancer, 87:276-282, 2000). All results of immunohistochemistry and TUNEL assay were evaluated and interpreted by two independent examiners.
The degree of DNA fragmentation was also analyzed in vivo using TUNEL assay which can serve as a marker for apoptosis. […] All animals were sacrificed at the end of the study and their primary tumors removed, paraffin embedded, sectioned and processed by TUNEL assay (upper panel of FIG. 14B) as described herein. Following TUNEL assay, they were counterstained with Hoescht reagent (lower panel of FIG. 14B).
In order to investigate an underlying molecular mechanism of action of PCK3145 in reducing tumor growth, Mat Ly Lu-PTHrP tumors were analyzed using TUNEL assay which can serve as a marker for apoptosis. […] All animals were sacrificed at the end of the study and their primary tumors removed, paraffin embedded, sectioned and processed by TUNEL assay (upper panel) and counterstained with Hoescht reagent (lower panel). Five animals were present in each group and three sections were analyzed for each animal.

A further data set deals with Mat Ly Lu-PTHrP cells. The data set is described as follows: Cell morphology of treated Mat Ly Lu-PTHrP cells. The format is cell-based, rat. On the procedure:
Cell morphology. Morphological analysis of control and experimental Mat Ly Lu-PTHrP cells treated with PSP-94 or PCK3145 was carried out by plating 5×10^4 cells/ well in 6-well plates (Falcon Plastics, Oxnard, Calif.) in the presence of 10% FBS.
Mat Ly Lu cells transfected with vector alone (CMV) or vector expressing PTHrP were seeded at a density of 5×10^3 cells/well in 6-well plates. Mat Ly Lu-PTHrP cells were treated with PSP-94 and were trypsinized and counted using a coulter counter as described herein. Change in cell number following treatment with 10.0 ug/ml of PSP-94 for 72 hrs is illustrated in FIG. 1.
Mat Ly Lu-PTHrP cells were seeded at a density of 5×10^3 cells/well in 6-well plates and treated with different doses (1.0-100.0 ug/ml) of PCK3145 for up to 5 days and were trypsinized and counted using a coulter counter as described herein.

For “E W Q T D N C E T C T C Y E T (EWQTDNCETCTCYET; PCK3145 (polypeptide 31-45))”, the plasma calcium levels result is reported as “more pronounced” in data set [1] (100.0 ug/kg PCK3145, relative to lower doses) and “significant reduction” in data set [1] (different doses of PCK3145, day 16, vs vehicle). Further, the animal weight result in data set [2] (PCK3145 1.0-100.0 ug/kg/day S.C. for 15 days) is “No significant difference”. Also, the cytotoxic effects entry in data set [2] is “without manifesting any noticeable cytotoxic effects”. Besides, the tumor volume entry in the data set with Mat Ly Lu-PTHrP tumors [3] (PCK3145 1.0-100.0 ug/kg/day S.C. for 15 days, vs vehicle) is listed as “significant dose-dependent reduction”. For the same molecule, the tumor weight entry in the data set with Mat Ly Lu-PTHrP tumors [3] (different doses of PCK3145, day 16 (data not shown), vs vehicle) is recorded as “dose-dependent decrease”. In addition, the “Hoechst counterstaining of tumor sections” value in the data set with Mat Ly Lu-PTHrP tumors [4] (Example 9, PCK3145 study) is given as “presence of apoptotic bodies”. Moreover, the “TUNEL staining of tumor sections” value in the data set with Mat Ly Lu-PTHrP tumors [4] (PCK3145 100.0 ug/kg/day) is “significantly more TUNEL positive”. The cell morphology entry with Mat Ly Lu-PTHrP cells (100.0 ug/ml PCK3145 (data not shown)) is “changed their morphology from a more spindle-like appearance to a more circular and condensed shape”.

B1: PSP-94: prostate secretory protein of 94 amino acids; native human seminal plasma PSP-94 (protein)
chain: SCYFIPNEGVPGDSTRKCMDLKGNKHPINSEWQTDNCETCTCYETEISCCTLVSTPVGYDKDNCQRIFKKEDCKYIVVEKKDPKKTCSVSEWII
For the molecule B1, the plasma calcium levels result in data set [1] (different doses of PSP-94, day 16, vs vehicle) is “significant reduction; also recorded: dose-dependent decrease”; in data set [1] (highest dose of PSP-94, 10.0 ug/kg/day), “near normalization”. Besides, the “side effects or weight loss of experimental animals” value in data set [2] (different doses of PSP-94, S.C. tumor model) is “not associated with any noticeable side effects or weight loss”. The animal weight entry in data set [2] (different doses of PSP-94 for fifteen consecutive days, vs vehicle) is “No significant change”. In addition, the cytotoxic effects entry in data set [2] is recorded as “without manifesting any noticeable cytotoxic effects”. The tumor volume entry with Mat Ly Lu-PTHrP tumors [3] (10.0 ug/kg/day PSP-94 as compared to 1.0 ug/kg/day PSP-94) is recorded as “did not show a marked decrease”; in the data set on Mat Ly Lu-PTHrP tumors [3] (PSP-94 0.1-10.0 ug/kg/day S.C. up to 15 days, vs vehicle), “marked dose-dependent reduction”. In the data set with Mat Ly Lu-PTHrP tumors [3] (PSP-94 0.1-10.0 ug/kg/day, tumors excised day 16, vs vehicle), the tumor weight result is reported as “significant dose-dependent decrease”. Also, the “Hoechst counterstaining of tumor sections” value was “condensed chromatin” in the data set with Mat Ly Lu-PTHrP tumors [4] (Example 9, PCK3145 study) and “presence of apoptotic bodies; also recorded: condensed chromatin” with Mat Ly Lu-PTHrP tumors [4] (PSP-94 treated animals). For the same molecule, the “TUNEL staining of tumor sections” value in the data set with Mat Ly Lu-PTHrP tumors [4] (PSP-94 10.0 ug/kg/day) is “significantly more TUNEL positive”. For the same molecule, in the data set with Mat Ly Lu-PTHrP cells (10.0 ug/ml PSP-94 for 3 days (data not shown)), the tumor cell morphology entry is on record as “noticeable change in tumor cell morphology”.
